From US20050130920A1 (published 2005) come the findings set out here.

The assay concerns the target T1, HLA-A2.1 on T2 cells (empty or unstable surface MHC class I, with added beta-2 microglobulin) (human).
T1 construct: it is treated here as the same molecule; also called HLA-A*0201
Briefly: T2 cell HLA-A2.1 stabilisation, W6/32 staining, flow cytometry.

Experimental: T2 cells, which express empty or unstable MHC molecules on their surfacer were washed twice and suspended at 5×10⁶ cells/ml in serum-free complete Iscove's modified Dulbecco's medium (IMDM). B2 microglobulin (Sigma, St. Louis, Mo.) was added at 5 μg/ml and the cells distributed to a 96-well U-bottom plate at 5×10⁵ cells/well. Peptides were added at 100, 10, 1 and 0.1 μg/ml. The plate was rocked gently for 2 minutes and then incubated for 4 hours in a 5% CO₂ incubator at 37° C. After the unbound peptide was removed by washing twice with IMDM, a saturating amount of monoclonal antibody W6/32 (Sigma) was added. After incubation for 30 minutes at 4° C., cells were washed with PBS supplemented with 1% heat-inactivated FCS, 0.1% (w:v) sodium azide, pH 7.4-7.6 (staining buffer), and incubated with fluorescein isothiocyanate (FITC)-conjugated goat F(ab′) antimouse-IgG (Sigma) for 30 min at 4° C. and washed four times as before. The cells were resuspended in staining buffer and fixed by adding a quarter volume of 2% paraformaldehyde.

B1: tyrosinase 207-216, FLPWHRLFLL (candidate tyrosinase housekeeping epitope) (peptide)
peptide: FLPWHRLFLL
notes: Synthetic 10-mer added to T2 cells at 100, 10, 1 and 0.1 ug/ml
For B1, the binding result was “binds”.
